Experimental data: IntAct's records for PubMed 26455797

B1: CCAAT/enhancer-binding protein alpha (Homo sapiens), P49715-1 (parent)
chain: MESADFYEAEPRPPMSSHLQSPPHAPSSAAFGFPRGAGPAQPPAPPAAPEPLGGICEHETSIDISAYIDPAAFNDEFLADLFQHSRQQEKAKAAVGPTGGGGGGDFDYPGAPAGPGGAVMPGGAHGPPPGYGCAAAGYLDGRLEPLYERVGAPALRPLVIKQEPREEDEAKQLALAGLFPYQPPPPPPPSHPHPHPPPAHLAAPHLQFQIAHCGQTTMHLQPGHPTPPPTPVPSPHPAPALGAAGLPGPGSALKGLGAAHPDLRASGGSGAGKAKKSVDKNSNEYRVRRERNNIAVRKSRDKAKQRNVETQQKVLELTSDNDRLRKRVEQLSRELDTLRGIFRQLPESSLVKAMGNCA
partner: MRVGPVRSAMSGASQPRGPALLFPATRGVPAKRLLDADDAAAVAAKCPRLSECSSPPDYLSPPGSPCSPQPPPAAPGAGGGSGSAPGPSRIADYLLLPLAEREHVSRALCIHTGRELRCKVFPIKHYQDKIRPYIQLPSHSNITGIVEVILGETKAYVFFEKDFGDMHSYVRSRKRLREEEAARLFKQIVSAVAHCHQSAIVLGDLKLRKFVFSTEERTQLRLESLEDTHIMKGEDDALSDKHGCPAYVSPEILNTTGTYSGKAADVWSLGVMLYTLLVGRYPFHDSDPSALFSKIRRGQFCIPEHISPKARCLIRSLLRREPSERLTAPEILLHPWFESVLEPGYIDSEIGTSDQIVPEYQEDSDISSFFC

Variants of: B1
Settings: with TRIB1, Q96RU8-1

| Variant | effect of a mutation on the interaction |
| --- | --- |
| MESADFYEAEPRPPMSSHLQSPPHAPSSAAFGFPRGAGPAQPPAPPAAPEPLGGICEHETSIDISAYDDPAAFNDEFLADLFQHSRQQEKAKAAVGPTGGGGGGDFDYPGAPAGPGGAVMPGGAHGPPPGYGCAAAGYLDGRLEPLYERVGAPALRPLVIKQEPREEDEAKQLALAGLFPYQPPPPPPPSHPHPHPPPAHLAAPHLQFQIAHCGQTTMHLQPGHPTPPPTPVPSPHPAPALGAAGLPGPGSALKGLGAAHPDLRASGGSGAGKAKKSVDKNSNEYRVRRERNNIAVRKSRDKAKQRNVETQQKVLELTSDNDRLRKRVEQLSRELDTLRGIFRQLPESSLVKAMGNCA [I68D] | decreasing interaction strength |
| MESADFYEAEPRPPMSSHLQSPPHAPSSAAFGFPRGAGPAQPPAPPAAPEPLGGICEHETAIDISAYIDPAAFNDEFLADLFQHSRQQEKAKAAVGPTGGGGGGDFDYPGAPAGPGGAVMPGGAHGPPPGYGCAAAGYLDGRLEPLYERVGAPALRPLVIKQEPREEDEAKQLALAGLFPYQPPPPPPPSHPHPHPPPAHLAAPHLQFQIAHCGQTTMHLQPGHPTPPPTPVPSPHPAPALGAAGLPGPGSALKGLGAAHPDLRASGGSGAGKAKKSVDKNSNEYRVRRERNNIAVRKSRDKAKQRNVETQQKVLELTSDNDRLRKRVEQLSRELDTLRGIFRQLPESSLVKAMGNCA [S61A] | decreasing interaction strength |
| MESADFYEAEPRPPMSSHLQSPPHAPSSAAFGFPRGAGPAQPPAPPAAPEPLGGICEHETSIDISAAIDPAAFNDEFLADLFQHSRQQEKAKAAVGPTGGGGGGDFDYPGAPAGPGGAVMPGGAHGPPPGYGCAAAGYLDGRLEPLYERVGAPALRPLVIKQEPREEDEAKQLALAGLFPYQPPPPPPPSHPHPHPPPAHLAAPHLQFQIAHCGQTTMHLQPGHPTPPPTPVPSPHPAPALGAAGLPGPGSALKGLGAAHPDLRASGGSGAGKAKKSVDKNSNEYRVRRERNNIAVRKSRDKAKQRNVETQQKVLELTSDNDRLRKRVEQLSRELDTLRGIFRQLPESSLVKAMGNCA [Y67A] | decreasing interaction strength |
| MESADFYEAEPRPPMSSHLQSPPHAPSSAAFGFPRGAGPAQPPAPPAAPEPLGGICEHETSDDISAYIDPAAFNDEFLADLFQHSRQQEKAKAAVGPTGGGGGGDFDYPGAPAGPGGAVMPGGAHGPPPGYGCAAAGYLDGRLEPLYERVGAPALRPLVIKQEPREEDEAKQLALAGLFPYQPPPPPPPSHPHPHPPPAHLAAPHLQFQIAHCGQTTMHLQPGHPTPPPTPVPSPHPAPALGAAGLPGPGSALKGLGAAHPDLRASGGSGAGKAKKSVDKNSNEYRVRRERNNIAVRKSRDKAKQRNVETQQKVLELTSDNDRLRKRVEQLSRELDTLRGIFRQLPESSLVKAMGNCA [I62D] | decreasing interaction strength |
| MESADFYEAEPRPPMSSHLQSPPHAPSSAAFGFPRGAGPAQPPAPPAAPEPLGGACEHETSIDISAYIDPAAFNDEFLADLFQHSRQQEKAKAAVGPTGGGGGGDFDYPGAPAGPGGAVMPGGAHGPPPGYGCAAAGYLDGRLEPLYERVGAPALRPLVIKQEPREEDEAKQLALAGLFPYQPPPPPPPSHPHPHPPPAHLAAPHLQFQIAHCGQTTMHLQPGHPTPPPTPVPSPHPAPALGAAGLPGPGSALKGLGAAHPDLRASGGSGAGKAKKSVDKNSNEYRVRRERNNIAVRKSRDKAKQRNVETQQKVLELTSDNDRLRKRVEQLSRELDTLRGIFRQLPESSLVKAMGNCA [I55A] | decreasing interaction strength |
| MESADFYEAEPRPPMSSHLQSPPHAPSSAAFGFPRGAGPAQPPAPPAAPEPLGGICEHATSIDISAYIDPAAFNDEFLADLFQHSRQQEKAKAAVGPTGGGGGGDFDYPGAPAGPGGAVMPGGAHGPPPGYGCAAAGYLDGRLEPLYERVGAPALRPLVIKQEPREEDEAKQLALAGLFPYQPPPPPPPSHPHPHPPPAHLAAPHLQFQIAHCGQTTMHLQPGHPTPPPTPVPSPHPAPALGAAGLPGPGSALKGLGAAHPDLRASGGSGAGKAKKSVDKNSNEYRVRRERNNIAVRKSRDKAKQRNVETQQKVLELTSDNDRLRKRVEQLSRELDTLRGIFRQLPESSLVKAMGNCA [E59A] | decreasing interaction strength |
| MESADFYEAEPRPPMSSHLQSPPHAPSSAAFGFPRGAGPAQPPAPPAAPEPLGGICEHETSIDDSAYIDPAAFNDEFLADLFQHSRQQEKAKAAVGPTGGGGGGDFDYPGAPAGPGGAVMPGGAHGPPPGYGCAAAGYLDGRLEPLYERVGAPALRPLVIKQEPREEDEAKQLALAGLFPYQPPPPPPPSHPHPHPPPAHLAAPHLQFQIAHCGQTTMHLQPGHPTPPPTPVPSPHPAPALGAAGLPGPGSALKGLGAAHPDLRASGGSGAGKAKKSVDKNSNEYRVRRERNNIAVRKSRDKAKQRNVETQQKVLELTSDNDRLRKRVEQLSRELDTLRGIFRQLPESSLVKAMGNCA [I64D] | decreasing interaction strength |
